Our source for the Kd and NHDF cells IL-13 Eotaxin release (IC50) [on average] values is patent US20090285799A1.

For experiment [1], the target named is T1, hIL-13Rα1.ECR (N-terminal FLAG-tagged fusion protein of the extracellular region of human IL-13Rα1) (human) (UniProt P78552).
T1 sequence: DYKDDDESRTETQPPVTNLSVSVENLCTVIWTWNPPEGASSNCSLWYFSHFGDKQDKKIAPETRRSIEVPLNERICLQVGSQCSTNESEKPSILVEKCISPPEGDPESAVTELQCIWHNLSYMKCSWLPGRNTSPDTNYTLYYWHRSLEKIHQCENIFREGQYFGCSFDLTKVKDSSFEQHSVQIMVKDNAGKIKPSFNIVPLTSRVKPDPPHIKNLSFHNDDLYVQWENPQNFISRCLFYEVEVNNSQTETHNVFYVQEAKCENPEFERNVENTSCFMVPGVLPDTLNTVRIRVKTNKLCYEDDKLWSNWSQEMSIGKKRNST
Put plainly: BIACORE SPR, hIL-13Rα1.ECR immobilized on CM5 chip, antibody as analyte, bivalent model. (SPR reads the build-up and loss of mass on a sensor chip optically.)

The target of experiment [2] is T2, human IL-13Rα1 on normal human dermal fibroblast (NHDF) cells (human) (UniProt P78552).
T2 sequence: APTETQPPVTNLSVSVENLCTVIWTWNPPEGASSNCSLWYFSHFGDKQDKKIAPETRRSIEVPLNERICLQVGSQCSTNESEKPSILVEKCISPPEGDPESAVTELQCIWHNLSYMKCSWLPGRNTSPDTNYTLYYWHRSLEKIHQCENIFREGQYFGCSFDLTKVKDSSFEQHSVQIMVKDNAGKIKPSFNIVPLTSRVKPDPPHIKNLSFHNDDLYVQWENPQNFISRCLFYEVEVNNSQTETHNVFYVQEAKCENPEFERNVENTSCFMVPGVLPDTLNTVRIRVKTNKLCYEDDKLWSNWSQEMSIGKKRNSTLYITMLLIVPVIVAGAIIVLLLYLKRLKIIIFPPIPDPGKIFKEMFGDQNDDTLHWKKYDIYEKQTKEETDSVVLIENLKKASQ
Put plainly: cell-based or functional assay.

The target in experiment [3] is T1, hIL-13Rα1.ECR (N-terminal FLAG-tagged fusion protein of the extracellular region of human IL-13Rα1) (human). In words: ELISA on plate-bound hIL-13Rα1.ECR.

B1: 4A10 (antibody, part only; not given: light chain, V domains shown, part only)
VH: QVQLVESGGGVVQPGRSLRLSCAASGFTFSNYGMHWVRQAPGKGLEWVAAIWYDGSDKNYADSVKGRVTISRDTSKKTLYLQMNSLRAEDTAIYYCAREITIMRGLIKNYYYYGMDVWGQGTTVTVSS
Consider B1, for which the Kd in experiment [1] worked out at 5.8 nM; in experiment [3], 1.2 nM. Besides, in experiment [2], the NHDF cells IL-13 Eotaxin release (IC50) [on average] came to 0.35 µg/mL.
